Measurements reported in patent US5989875A, “Method of process for producing L-lysine by fermentation” (priority 1995, dated 1999).

Legend:
[1] = system: AKIII; assay: Enzyme activity of AKIII and inhibition by L-lysine (cell-free extract); assay type: biochemical, E. coli
Text: No. 24, No. 43, No. 48, No. 60, No. 80, No. 117, No. 126, No. 149, No. 150, No. 156, No. 158, No. 167, No. 169 and No. 172 were selected as representative strains of the aforementioned 14 groups. Mutant plasmids derived from pLYSC1 were recovered from each of them, and designated as pLYSC1*24, pLYSC1*43, pLYSC1*48, pLYSC1*60, pLYSC1*80, pLYSC1*117, pLYSC1*126, pLYSC1*149, pLYSC1*150, pLYSC1*156, pLYSC1*158, pLYSC1*167, pLYSC1*169 and pLYSC1*172, respectively. An AK completely deficient strain GT3 was transformed with them and the wild type pLYSC1. A cell-free extract was prepared from each of transformed strains, and the enzyme activity of AKIII was measured.
The cell-free extract (crude enzyme solution) was prepared as follows. A transformed strain was cultivated in a 2 x TY medium, and collected at an OD660 of about 0.8. Cells were washed with 0.02 M KH2 PO4 (pH 6.75)-0.03 M β-mercaptoethanol under a condition of 0° C., and the cells were disrupted by sonication (0° C., 100 W, 30 minutes×4). A disrupted cell solution was centrifuged at 33 krpm for 1 hour under a condition of 0° C. to obtain a supernatant to which ammonium sulfate was added to give 80% saturation. After centrifugation, a pellet was dissolved in 0.02 M KH2 PO4 (pH 6.75)-0.03 M β-mercaptoethanol, and stored at 0° C. overnight.
The enzyme activity of AKIII was measured in accordance with a method of Stadtman et al. (Stadtman, E. R., Cohen, G. N., LeBras, G., and Robichon-Szulmajster, H., J. Biol. Chem., 236, 2033 (1961)). Namely, a reaction solution having the following composition was incubated at 27° C. for 45 minutes, and an FeCl3 solution (2.8 N HCl 0.4 ml+12% TCA 0.4 ml+5% FeCl3 ·6H2 O/0.1 N HCl 0.7 ml) was added thereto to develop a color, and it was centrifuged followed by measurement of absorbance of a supernatant at 540 nm. The activity was indicated by an amount of hydroxamic acid generated per minute (1 U=1 μmol/min). The molar absorption coefficient was 600. Potassium aspartate was removed from the reaction solution to be used as a blank.
In measurement of the enzyme activity of AK, various concentrations of L-lysine were added to the enzyme reaction solution and the degree of inhibition by L-lysine was examined.
(§1) On the contrary, although the mutant AKIII's obtained this time had various degrees of desensitization, inhibition by L-lysine was desensitized in all of 14 species. […] The specific activity based on total protein, which might be affected by growth situations of cell and preparation of samples, was equal to or more than that of the wild type in almost all cases, and there was little problem of decrease in activity due to the introduction of mutation (Table 3). According to this fact, it was expected that an active center of AKIII was independent from a regulatory site by L-lysine with each other. In Table 3, the inhibition desensitization degree (%) refers to an AK activity in the presence of 100 mM of L-lysine compared with an AK activity in the absence of L-lysine in the reaction solution. The heat stability (%) refers to a ratio of activity maintenance after a treatment at 55° C. for 1.5 hour.

[2] = system: AKIII; assay: Heat stability of AKIII in vitro; assay type: biochemical, E. coli; settings: ratio of activity maintenance after treatment at 55° C. for 1.5 hour
Text: as §1
Subsequently, the heat stability of the mutant enzymes was examined. When it is intended that an enzyme is improved to increase its activity, it is important that a created enzyme is maintained stably in cells. […]
Judging from results of investigation on the inactivation temperature of AKIII under various conditions, the ratio of activity maintenance after a treatment at 55° C. for 90 minutes was measured. […]

B1: Wild type: wild type aspartokinase III of E. coli encoded by lysC, SEQ ID NO:8 (protein)
chain: MSEIVVSKFGGTSVADFDAMNRSADIVLSDANVRLVVLSASAGITNLLVALAEGLEPGERFEKLDAIRNIQFAILERLRYPNVIREEIERLLENITVLAEAAALATSPALTDELVSHGELMSTLLFVEILRERDVQAQWFDVRKVMRTNDRFGRAEPDIAALAELAALQLLPRLNEGLVITQGFIGSENKGRTTTLGRGGSDYTAALLAEALHASRVDIWTDVPGIYTTDPRVVSAAKRIDEIAFAEAAEMATFGAKVLHPATLLPAVRSDIPVFVGSSKDPRAGGTLVCNKTENPPLFRALALRRNQTLLTLHSLNMLHSRGFLAEVFGILARHNISVDLITTSEVSVALTLDTTGSTSTGDTLLTQSLLMELSALCRVEVEEGLALVALIGNDLSKACGVGKEVFGVLEPFNIRMICYGASSHNLCFLVPGEDAEQVVQKLHSNLFE
**Q.** For B1, which “Degree of desensitization of inhibition” value ([1]; AK activity in the presence of 100 mM of L-lysine compared with AK activity in the absence of L-lysine) is on record?
**A.** Its value is 0%.

**Q.** And the Specific activity ([1]; AKIII, cell-free extract of GT3 transformants, 1 U=1 μmol/min)?
**A.** The Specific activity was 0.0247 U/mg protein.

**Q.** And the “Inhibition of AKIII by L-lysine” value ([1]; various concentrations of L-lysine, FIG. 6)?
**A.** Its value is “strongly suffered inhibition by L-lysine”.

**Q.** What about the Heat stability [2] of the same molecule?
**A.** The Heat stability was 18%.
